# Experimental data reported in patent US20030232420A1 (SEQUENOM, published 2003).
# Ends that are not written are not given here.
# B1: AKB (RI), RI specific (SEQ ID NO:103) FEELAWKIAKMIWSDVFQQC, rhodamine-labeled (peptide)
# peptide: FEELAWKIAKMIWSDVFQQC(tetramethylrhodamine‑5‑maleimide)-NH2
# notes: also called PV-38; RIα-specific (Q9F, V21W, M25F)
# B2: VQGNTDEAQEELAWKIAKMIVSDIMQQ (SEQ ID NO:1), cellulose-bound (peptide)
# peptide: VQGNTDEAQEELAWKIAKMIVSDIMQQ
# modifications: also: cellulose-bound
# notes: also called Ile variant 27-mer; I24 peptide
# B3: VQGNTDEAQEELAWKIAKMIVSDVMQQ (SEQ ID NO:2), cellulose-bound (peptide)
# peptide: VQGNTDEAQEELAWKIAKMIVSDVMQQ
# modifications: also: cellulose-bound
# notes: also called Val variant 27-mer; V24 peptide
# B4: AKB (null) (SEQ ID NO:110) VQGNTDEAQEELAWKIEKMIWSDVMQQC, rhodamine-labeled (peptide)
# peptide: VQGNTDEAQEELAWKIEKMIWSDVMQQC(tetramethylrhodamine‑5‑maleimide)-NH2
# notes: also called null peptide (A17E and V21W)
# Molecular target: T1, Full-length murine RIIα (murine, UniProt P12367 2-401)
# T1 construct: mature; given as full-length
# T1 sequence (P12367 2-401): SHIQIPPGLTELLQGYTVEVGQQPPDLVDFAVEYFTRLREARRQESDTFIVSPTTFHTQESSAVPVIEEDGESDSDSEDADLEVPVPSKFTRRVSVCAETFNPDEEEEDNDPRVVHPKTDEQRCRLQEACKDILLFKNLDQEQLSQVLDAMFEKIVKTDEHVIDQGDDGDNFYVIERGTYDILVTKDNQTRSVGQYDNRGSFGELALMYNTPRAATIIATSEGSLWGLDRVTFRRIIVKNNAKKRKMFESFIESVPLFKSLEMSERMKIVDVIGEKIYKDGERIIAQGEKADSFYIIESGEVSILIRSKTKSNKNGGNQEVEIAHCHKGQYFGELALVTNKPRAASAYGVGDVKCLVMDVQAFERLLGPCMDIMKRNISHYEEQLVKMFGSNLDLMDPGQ
# Assay: fluorescence anisotropy, labeled peptide with increasing full-length RIIα; the concentration on the axis is that of the protein
# Method: (§1) Binding of each fluorescently labeled peptide to the regulatory subunits was monitored using fluorescence anisotropy. RIα and RIIα were serially diluted beginning at 1 μM and 0.1 μM, respectively, into 10 mM HEPES pH 7.4, 0.15 M NaCl, 3 mM EDTA, 0.005% Surfactant P20 (Biacore) containing either 10 nM or 1 nM of fluorescently labeled peptide for RIα and RIIα, respectively. The samples were equilibrated for at least 1 hour at room temperature and fluorescence anisotropy monitored using a Fluoromax-2 (Jobin Yvon Horiba, SPEX Division, Edison, N.J.) equipped with Glan-Thompson polarizers. The rhodamine-labeled peptide was excited at 541 nm (5-10 nm bandpass) and emission monitored at 575 nm (5-10 nm bandpass). The anisotropy was calculated directly with the Fluoromax software using the following equation: […]
# (§2) The binding affinities of three peptides designated RIIα-specific (A13L; SEQ ID NO:109), RIα-specific (Q9F, V21W, and M25F; SEQ ID NO:103) and null (A17E and V21W; SEQ ID NO:110) were compared with the unsubstituted peptide (FIG. 2 and Table 7) using fluorescence anisotropy. […] The null peptide bound very poorly to RIα and binding to RIIα could not be detected (FIG. 2).
row,Binder,EC50 (read off the curve) [nM]
1,"VQGNTDEAQEELLWKIAKMIVSDVMQQC(tetramethylrhodamine‑5‑maleimide)-NH2 (also called RIIα-specific (A13L)) [AKB (RII), RII specific (SEQ ID NO:109) VQGNTDEAQEELLWKIAKMIVSDVMQQC, rhodamine-labeled]",~3
2,B1,~500

# Molecular target: T1, Full-length murine RIIα
# Assay: fluorescence anisotropy, labeled peptide
# Method: as §1
# (§3) Several additional truncated and substituted peptides were synthesized and their affinity to RIα and RIIα evaluated using fluorescence anisotropy (see Table 8). Binding was evaluated for both RIα and RIIα0 using fluorescence anisotropy as described herein. Substituted residues are in bold Table 8. Tryptophan at a position corresponding to residue 21 of SEQ ID NO:2 is important for discriminating against binding to the RIIα subunit.
row,Binder,Kd [nM]
1,"Ac-DLAWKIAKMIVSDVMQQC(tetramethylrhodamine‑5‑maleimide)-NH2 [SEQ ID NO:112 peptide Ac-DLAWKIAKMIVSDVMQQC, rhodamine-labeled]",107
2,"VQGNTDEAQEELAWKIAKMIWSDVMQQC(tetramethylrhodamine‑5‑maleimide)-NH2 (also called single mutant V21W) [SEQ ID NO:111 peptide (. . . QEELAWKIAKMIWSDVMQQC), rhodamine-labeled]",83
3,B1,456
4,"FEELAWKIAKMIISDVFQQC(tetramethylrhodamine‑5‑maleimide)-NH2 [PV-49 (SEQ ID NO:107) FEELAWKIAKMIISDVFQQC, rhodamine-labeled]",2.5
5,"QEEFAWKIAKMIVSDVFQQC(tetramethylrhodamine‑5‑maleimide)-NH2 [PV-47 (SEQ ID NO:105) QEEFAWKIAKMIVSDVFQQC, rhodamine-labeled]",89
6,"FEELAWKIAKMIWSDVMQQC(tetramethylrhodamine‑5‑maleimide)-NH2 [PV-37 (SEQ ID NO:104) FEELAWKIAKMIWSDVMQQC, rhodamine-labeled]",150
7,"QEEFAWKIAKMIISDVFQQC(tetramethylrhodamine‑5‑maleimide)-NH2 [PV-48 (SEQ ID NO:106) QEEFAWKIAKMIISDVFQQC, rhodamine-labeled]",124

# Molecular target: T2, Full-length bovine RIα (bovine, UniProt P00514 1-380)
# T2 construct: mature; given as full-length
# T2 sequence (P00514 whole entry): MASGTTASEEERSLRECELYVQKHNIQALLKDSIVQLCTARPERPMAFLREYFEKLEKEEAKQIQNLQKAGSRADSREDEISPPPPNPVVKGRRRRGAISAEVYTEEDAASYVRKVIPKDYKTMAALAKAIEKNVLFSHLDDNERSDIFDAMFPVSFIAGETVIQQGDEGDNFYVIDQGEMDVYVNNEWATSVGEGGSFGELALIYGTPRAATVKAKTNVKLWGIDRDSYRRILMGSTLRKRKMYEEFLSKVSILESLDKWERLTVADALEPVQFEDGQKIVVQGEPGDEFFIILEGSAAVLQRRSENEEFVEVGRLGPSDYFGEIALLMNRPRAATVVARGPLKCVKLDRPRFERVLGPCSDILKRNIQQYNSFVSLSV
# Assay: fluorescence anisotropy, labeled peptide
# Method: as §1, §3
row,Binder,Kd [nM]
1,"Ac-DLAWKIAKMIVSDVMQQC(tetramethylrhodamine‑5‑maleimide)-NH2 [SEQ ID NO:112 peptide Ac-DLAWKIAKMIVSDVMQQC, rhodamine-labeled]",773
2,"VQGNTDEAQEELAWKIAKMIWSDVMQQC(tetramethylrhodamine‑5‑maleimide)-NH2 (also called single mutant V21W) [SEQ ID NO:111 peptide (. . . QEELAWKIAKMIWSDVMQQC), rhodamine-labeled]",120
3,B1,5.2
4,"FEELAWKIAKMIISDVFQQC(tetramethylrhodamine‑5‑maleimide)-NH2 [PV-49 (SEQ ID NO:107) FEELAWKIAKMIISDVFQQC, rhodamine-labeled]",1.1
5,"QEEFAWKIAKMIVSDVFQQC(tetramethylrhodamine‑5‑maleimide)-NH2 [PV-47 (SEQ ID NO:105) QEEFAWKIAKMIVSDVFQQC, rhodamine-labeled]",39
6,"FEELAWKIAKMIWSDVMQQC(tetramethylrhodamine‑5‑maleimide)-NH2 [PV-37 (SEQ ID NO:104) FEELAWKIAKMIWSDVMQQC, rhodamine-labeled]",19
7,"QEEFAWKIAKMIISDVFQQC(tetramethylrhodamine‑5‑maleimide)-NH2 [PV-48 (SEQ ID NO:106) QEEFAWKIAKMIISDVFQQC, rhodamine-labeled]",12

# Molecular target: T3, GFP-RIα D/D (bovine, UniProt P00514 1-109)
# T3 construct: range 1-109; His tag cleaved with thrombin; also called dimerization/docking (D/D) domain of bovine RIα (residues 1-109) fused to GFP; not shown: green fluorescent protein (GFP)
# T3 sequence (P00514 1-109): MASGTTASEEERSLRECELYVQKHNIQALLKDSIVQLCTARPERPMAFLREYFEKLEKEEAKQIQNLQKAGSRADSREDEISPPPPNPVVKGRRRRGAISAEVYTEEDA
# Assay: SPOT peptide array, anti-GFP detection
row,Binder,binding result
1,ELAWKIAKMIVSDIMQQ (also: cellulose-bound) [SEQ ID NO:75 peptide],binds
2,QGNTDEAQEELAWKIAKMIVSDIMQQ (also: cellulose-bound) [SEQ ID NO:66 peptide],binds
3,NTDEAQEELAWKIAKMIVSDIMQQ (also: cellulose-bound) [SEQ ID NO:68 peptide],binds
4,TDEAQEELAWKIAKMIVSDIMQQ (also: cellulose-bound) [SEQ ID NO:69 peptide],binds
5,GNTDEAQEELAWKIAKMIVSDIMQQ (also: cellulose-bound) [SEQ ID NO:67 peptide],binds
6,DEAQEELAWKIAKMIVSDIMQQ (also: cellulose-bound) [SEQ ID NO:70 peptide],binds
7,EAQEELAWKIAKMIVSDIMQQ (also: cellulose-bound) [SEQ ID NO:71 peptide],binds
8,EELAWKIAKMIVSDIMQQ (also: cellulose-bound) [SEQ ID NO:74 peptide],binds
9,QEELAWKIAKMIVSDIMQQ (also: cellulose-bound) [SEQ ID NO:73 peptide],binds
10,B2,binds
11,AQEELAWKIAKMIVSDIMQQ (also: cellulose-bound) [SEQ ID NO:72 peptide],binds

# Molecular target: T4, GFP-RIIα D/D (mouse, UniProt P12367 1-46)
# T4 construct: range 1-46; His tag cleaved with thrombin; also called GFP-RII D/D; D/D domain of mouse RIIα (residues 1-46) fused to GFP; not shown: green fluorescent protein (GFP)
# T4 sequence (P12367 1-46): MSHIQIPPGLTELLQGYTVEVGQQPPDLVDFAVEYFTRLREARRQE
# Assay: SPOT peptide array, anti-GFP detection
row,Binder,binding result
1,ELAWKIAKMIVSDIMQQ (also: cellulose-bound) [SEQ ID NO:75 peptide],binds
2,AWKIAKMIVSDIMQQ (also: cellulose-bound) [SEQ ID NO:77 peptide],binds
3,QGNTDEAQEELAWKIAKMIVSDIMQQ (also: cellulose-bound) [SEQ ID NO:66 peptide],binds
4,LAWKIAKMIVSDIMQQ (also: cellulose-bound) [SEQ ID NO:76 peptide],binds
5,NTDEAQEELAWKIAKMIVSDIMQQ (also: cellulose-bound) [SEQ ID NO:68 peptide],binds
6,TDEAQEELAWKIAKMIVSDIMQQ (also: cellulose-bound) [SEQ ID NO:69 peptide],binds
7,GNTDEAQEELAWKIAKMIVSDIMQQ (also: cellulose-bound) [SEQ ID NO:67 peptide],binds
8,DEAQEELAWKIAKMIVSDIMQQ (also: cellulose-bound) [SEQ ID NO:70 peptide],binds
9,EAQEELAWKIAKMIVSDIMQQ (also: cellulose-bound) [SEQ ID NO:71 peptide],binds
10,EELAWKIAKMIVSDIMQQ (also: cellulose-bound) [SEQ ID NO:74 peptide],binds
11,QEELAWKIAKMIVSDIMQQ (also: cellulose-bound) [SEQ ID NO:73 peptide],binds
12,B2,binds
13,AQEELAWKIAKMIVSDIMQQ (also: cellulose-bound) [SEQ ID NO:72 peptide],binds

# Molecular target: T3, GFP-RIα D/D
# Assay: SPOT peptide array, anti-GFP detection
# Remark: another data set of the same source
# Method: (§4) In addition, the minimal sequence required for regulatory subunit binding was also assessed using N- and C-terminal truncations of the 27-residue human D-AKAP2 sequence. N-terminal or C-terminal truncated peptides were synthesized using SPOT synthesis on cellulose membrane as described herein. Binding was evaluated by incubating each membrane with GFP-RIα D/D and GFP-RIIα D/D as indicated below. The dimerization/docking (D/D) domain of bovine RIα (residues 1-109) and mouse RIIα (residues 1-46), fused to green fluorescence protein (GFP) were subcloned into a pRSET expression vector (Invitrogen, Carlsbad, Calif.) downstream of a histidine tag. The proteins, GFP-RIα D/D and GFP-RIIα D/D were expressed in E. coli BL21 (DE3) and purified using Talon (Clontech, Palo Alto, Calif.) resin. The His tag was cleaved using thrombin and the protein further purified using an S75-Sephadex (16/60) gel filtration column (Pharmacia, Peapack, N.J.) in 50 mM MES pH 5.8, 50 mM NaCl, 2 mM EDTA, 2 mM EGTA, 2 mM DTT. The protein was stored at 4° C.
# (§5) Bound protein was detected using a primary antibody against GFP and enzyme conjugated secondary antibody for amplification of signal. The membrane was then analyzed by chemiluminescence.
row,Binder,binding result
1,VQGNTDEAQE (also: cellulose-bound) [SEQ ID NO:99 peptide],no binding

# Molecular target: T4, GFP-RIIα D/D
# Assay: SPOT peptide array, anti-GFP detection
# Remark: another data set of the same source
# Method: as §4, §5
row,Binder,binding result
1,VQGNTDEAQE (also: cellulose-bound) [SEQ ID NO:99 peptide],no binding

# Molecular target: T2, Full-length bovine RIα
# Assay: fluorescence anisotropy, labeled peptide with increasing full-length RIα; the concentration on the axis is that of the protein
# Method: as §1, §2
row,Binder,EC50 (read off the curve) [nM]
1,B1,~10

# Molecular target: T5, PKA-RIIα-GFP (UniProt P42212 1-238 = GFP)
# T5 construct: it may be the same construct as m8; also called PKA-RIIa-GFP
# Assay: SPOT membrane, anti-GFP detection
# Method: Substitution analysis of both allelic peptides ([…]; SEQ ID NO:2 and […]; SEQ ID NO:1) was conducted. Each amino acid of the 27-mer peptide was substituted, one amino acid at a time per peptide, by any naturally occurring L- and D- amino acid. For both peptides complete L- and D- substitution analysis membranes have been screened for binding of PKA-RIα-GFP. After regeneration, the peptide arrays were incubated with PKA-RIIα-GFP. After binding, detection was carried out with an anti-GFP antibody in combination with a peroxidase-labeled secondary antibody.
row,Binder,fold signal intensity against PKA-RIα-GFP [fold]
1,B3,~10
2,B2,~10

# Molecular target: T2, Full-length bovine RIα
# Assay: fluorescence anisotropy
row,Binder,fold enhancement of binding against the unsubstituted peptide [fold]
1,B1,10

# Molecular target: T1, Full-length murine RIIα
# Assay: fluorescence anisotropy, labeled peptide, n = 3
# Method: as §1, §2
row,Binder,Kd [nM]
1,"VQGNTDEAQEELLWKIAKMIVSDVMQQC(tetramethylrhodamine‑5‑maleimide)-NH2 (also called RIIα-specific (A13L)) [AKB (RII), RII specific (SEQ ID NO:109) VQGNTDEAQEELLWKIAKMIVSDVMQQC, rhodamine-labeled]",2.7
2,B4,> 10000
3,B1,456

# Molecular target: T2, Full-length bovine RIα
# Assay: fluorescence anisotropy, labeled peptide, n = 3
# Method: as §1, §2
row,Binder,Kd [nM]
1,"VQGNTDEAQEELLWKIAKMIVSDVMQQC(tetramethylrhodamine‑5‑maleimide)-NH2 (also called RIIα-specific (A13L)) [AKB (RII), RII specific (SEQ ID NO:109) VQGNTDEAQEELLWKIAKMIVSDVMQQC, rhodamine-labeled]",2490
2,B4,998
3,B1,5.2
